Reference: patent publication US12383572B2, “Administration of an anti-activin-a compound to a subject” (AMGEN INC., priority 2013, dated 2025)

How the values were obtained:
activin-A = molecular target: T1, activin-A (Mus musculus, UniProt Q04998); test: Serum activin-A ELISA in inh-KO mice with established gonadal tumors; type: in vivo; conditions: single injection 30 mg/kg SC
T1 construct: from tissue; host or cells: serum of inhibin-α knockout (inh-KO) and wild-type mice
T1 sequence (Q04998 309-424): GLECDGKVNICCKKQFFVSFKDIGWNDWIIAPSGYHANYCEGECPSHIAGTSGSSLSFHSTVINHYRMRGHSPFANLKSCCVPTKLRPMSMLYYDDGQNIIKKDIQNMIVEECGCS
Experimental: Inh-KO mice. 12-week-old female and 8-week-old male inh-KO mice with fully established ovarian or testicular tumors received a single injection of PBS or sActRIIB (30 mg/kg, SC). As a control, age-matched wild-type littermates received a single injection of PBS. Ovarian and testicular organ weights were determined by necropsy 14 days after the injection. All serum samples from ovarian cancer patients and healthy subjects were collected under informed consent and were purchased from Bioreclamation, Inc. The serum samples were diluted in buffer (DY995, R & D Systems) and pretreated overnight at 4° C. with 4 M urea (Sigma) to dissociate any protein bound to activin-A. The samples were then transferred to 96 well plates pre-coated with an activin-A monoclonal antibody. After 2 hr incubation at room temperature and a washing step (0.05% Tween 20 in DPBS), a biotin-labeled activin-A monoclonal antibody was added for 1 hr at room temperature. […] An acidic stopping solution (KPL) was added and the degree of enzymatic turnover of the substrate was determined by wavelength absorbance measurement at 450 nm. The absorbance measured is directly proportional to the concentration of activin-A present. A standard curve of absorbance versus activin-A concentration was used to determine the amount of Activin-A in the test sample. Serum activin-A levels in inh-KO mice were measured by using ELISA.

[1] = sActRIIB single dose in female Inhα KO mice: survival; type: in vivo, mouse
Experimental: Eleven-to-fourteen-week-old female Inhα KO mice with body weight from 19.41 to 26.82 grams were subcutaneously (SC) injected with either 30 mg/kg sActRIIB or PBS. Age-matched WT littermate control mice were injected with PBS and served as baseline controls. The study ended by necropsy 2 weeks after injections. Two cohorts of mice were used in the study. Eleven-to-thirteen-week-old female Inhα KO mice with body weight from 17.7 to 27.4 grams were SC injected with either 30 mg/kg sAcLRIIB or PBS. Age-matched WT littermate control mice were injected with PBS and served as baseline controls. The withdrawal lasted for 8 weeks. At the end of the withdrawal, the sActRIIB treated mice were divided by balanced body weight into 2 groups (Group 3 and Group 4).
Group 2 and Group 3 were euthanized to examine the ovarian tumors. Group 4 received another dose of 30 mg/kg sActRIIB and the mice were euthanized together with the WT mice 4 weeks later (total 12 weeks). Mouse body weights were recorded once per week up to 12 weeks. For necropsy, mice were euthanized in a CO2 chamber. Normal ovaries in WT mice and ovarian tumors in Inhα KO mice were collected and weighed. All results were expressed as the mean±standard error of the mean (SEM). Statistical significance of difference between groups was analyzed using Student's 2-tailed t-test on MS Excel 5.0 software. […]

[2] = system: G361 human melanoma xenografts; test: G361 melanoma xenograft growth in nude mice; type: in vivo; conditions: sActRIIB 20 mg/kg SC 1x/week from day 14
Experimental: G361 and 5637 xenografts. 5×10^6 G361 melanoma cells and 5637 bladder carcinoma cells, respectively, were inoculated SC into individual athymic nu/nu mice (Harlan Inc). Treatment was initiated 4 days after 5637 implantation and 14 days after G361 implantation, when the tumor volumes reached 130 mm^3−150 mm^3. 5637-implanted mice received PBS or activin-A antibody (10 mg/kg, SC, 2×/week). G361-implanted mice received PBS or sActRIIB (20 mg/kg, SC, 1×/week).
For all xenograft experiments, the tumor sizes were measured longitudinally by using an electronic caliper. Immediately prior to the 1st dose, the tumor-bearing mice were randomized to ensure even distribution in tumor sizes across different groups. Tumor volumes (mm^3) were calculated as tumor length (mm)×tumor width (mm)×tumor height (mm). Tumor weights were determined by necropsy.

[3] = TOV-21G xenograft, hu-sActRIIB-Fc alone or with 5-FU: body weight; type: in vivo, mouse; conditions: TOV-21G tumor-bearing athymic nude mice
Experimental: In another experiment, athymic nude mice received TOV-21G xenografts in the abdominal flank. After 14 days, subcutaneous hu-sActRIIB-Fc was administered weekly alone or in combination with 5-FU.

[4] = system: TOV-21G ovarian cancer xenografts; test: TOV-21G xenograft growth in nude mice, activin-A antagonists alone; type: in vivo, human; conditions: sActRIIB 30 mg/kg SC 1x/week, activin-A antibody 30 mg/kg SC 2x/week, from day 12, vs PBS
Experimental: TOV-21G xenograft. 5×10^6 TOV-21G ovarian cancer cells were implanted subcutaneously into individual female athymic nu/nu mice (Harlan). Treatment was initiated at day 12 after tumor implantation, when the average tumor volume reached approximately 150 mm^3. The mice received PBS, sActRIIB (30 mg/kg, SC, 1×/week) or activin-A antibody (30 mg/kg, SC, 2×/week). In a separate chemotherapy combination experiment, the mice were treated with PBS, sActRIIB (10 mg/kg, SC, 1×/week), 5-FU (50 mg/kg, IP, 3 cycles, 4 daily injections per cycle) or sActRIIB and 5-FU combination at the same doses above. For all xenograft experiments, the tumor sizes were measured longitudinally by using an electronic caliper. Immediately prior to the 1st dose, the tumor-bearing mice were randomized to ensure even distribution in tumor sizes across different groups. Tumor volumes (mm^3) were calculated as tumor length (mm)×tumor width (mm)×tumor height (mm). Tumor weights were determined by necropsy.

[5] = system: ovarian tumors in inh-KO mice; test: Ovarian tumor mass by necropsy in female inh-KO mice; type: in vivo, mouse; conditions: 12-week-old female inh-KO mice, single injection 30 mg/kg SC, necropsy 14 days after
Experimental: Inh-KO mice. 12-week-old female and 8-week-old male inh-KO mice with fully established ovarian or testicular tumors received a single injection of PBS or sActRIIB (30 mg/kg, SC). As a control, age-matched wild-type littermates received a single injection of PBS. Ovarian and testicular organ weights were determined by necropsy 14 days after the injection.

B1: sActRIIB: extracellular domain of human activin type-2B receptor fused to IgG2 Fc; full length SEQ ID NO: 21 (Table 9) (protein, listed as Homo sapiens)
chain: ETRWCIYYNANWELERTNQSGLERCEGEQDKRLHCYASWRNSSGTIELVKKGCWLDDFNCYDRQECVATEENPQVYFCCCEGNFCNERFTHLPEAGGPEVTYEPPPTAPTGGGGSVECPPCPAPPVAGPSVFLFPPKPKDTLMISRTPEVTCVVVDVSHEDPEVQFNWYVDGVEVHNAKTKPREEQFNSTFRVVSVLTVVHQDWLNGKEYKCKVSNKGLPAPIEKTISKTKGQPREPQVYTLPPSREEMTKNQVSLTCLVKGFYPSDIAVEWESNGQPENNYKTTPPMLDSDGSFFLYSKLTVDKSRWQQGNVFSCSVMHEALHNHYTQKSLSLSPGK
duration of activin-A-neutralizing effect (activin-A): persisted throughout the 14-day study period
serum activin-A levels (activin-A; within one day after administration): reduced the elevated activin-A in the inh-KO mice to normal control levels
survival rate at week 8 ([1]; single dose 30 mg/kg SC): 94%
survival curves, sActRIIB vs. PBS ([1]; single dose, chi-square test): significantly different
growth rate and size of G361 xenografts [2]: significantly decreased the growth rates and sizes
body weight increase during the experiment [3]: 26%
growth of TOV-21G xenografts (tumor volume) [4]: significantly inhibited the growth
ovarian tumor mass [5]: regressed rapidly to the sizes seen in the WT control mice
